Earlier results in US20110015134A1, “Method of treatment for early stage cancer” (priority 2007, published 2011).

What was measured:
[1] = test system: wound healing associated tumor growth; details: reported in the literature
[2] = in vivo
[3] = at any level, at any concentration
[4] = in vivo; remark: listed apart in the source

COc1ccc2c(c1)c(CC(=O)O)c(C)n2C(=O)c1ccc(Cl)cc1 [Indomethacin]
prevention of wound healing associated / surgery induced tumor growth [1]: effective in preventing wound healing associated tumor growth

O=S1(=O)CCN(CN2CCS(=O)(=O)NC2)CN1 [Taurolidine]
prevention of wound healing associated / surgery induced tumor growth [1]: can prevent surgery induced tumor growth

Avastin: angiogenesis inhibitor that inhibits VEGF
dose limiting toxicity [2]: some dose limiting toxicity mainly hypertension

Endostatin
toxicity [3]: never been shown to exhibit toxicity at any level at any concentration | half-life [4]: half-life is short
